The values that follow come from the supplement of paper PMC7877785.

The series can be described thus: self-splicing fitness, log relative to wild type (ln ratio); higher = more splicing; Tetrahymena group I intron in knt gene, E. coli kanamycin selection, DiMSum; sequences stand for … in CUCUCU…GGAGGGAAAAGUUAUCAGGCAUGCACCUGGUAGCUAGUCUUUAAACCAAUAGAUUGCAUCGGUUUAAAAGGCAAGACCGUCAAAUUGCGGGAAAGGGGUCAACAGCCGUUCAGUACCAAGUCUCAGGGGAAACUUUGAGAUGGCCUUGCAAAGGGUAUGGUAAUAAGCUGACGGACAUGGUCCUAACCACGCAGCCAAGUCCUAAGUCAACAGAUCUUCUGUUGAUAUGGAUGCAGUUCACAGACUAAAUGUCGGUCGGGGAAGAUGUAUUCUUCUCAUAAGAUAUAGUCGGACCUCUCCUUAAUGGGAGCUAGCGGAUGAAGUGAUGCAACACUGGAGCCGCUGGGAACUAAUUUGUAUGCGAAAGUAUAUUGAUUAGUUUUGGAGUACUCGUGGUCG
In short, it runs like this: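 Library with all eight P1ex-region intron nucleotides randomised, intron inside the knt kanamycin-resistance gene on pET-22b(+), in E. coli BL21(DE3). Cells grew overnight at 37°C or 30°C on LB agar with or without 25 μg/mL kanamycin (plus 100 μg/mL carbenicillin, 50 μM IPTG, 0.2% rhamnose), in six replicate transformations. Pooled colonies were amplicon-sequenced on Illumina HiSeq 2500. DiMSum fitness is the error-weighted combination of wild-type-normalised replicate fold changes, kanamycin versus none.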

± gives the uncertainty stated by the source.

For GCAUAGCAAUAUUACGAUAC, the “self-splicing fitness (ln)” value is -1.47 ± 0.13 (30 °C) and -0.915 ± 0.14 (37 °C).
Take GUAAAGCAAUAUUACGACCU: the “self-splicing fitness (ln)” value by setting is: (30 °C) 0.443 ± 0.18; (37 °C) 0.00961 ± 0.19.
Taken in the same sequence, the figures for AGCCAGCAAUAUUACGCAGG were -3.44 ± 0.14 and -2.62 ± 0.18.
In the same order, the values of CCUUAGCAAUAUUACGUCAU are -3.85 ± 0.21 and -2.96 ± 0.24.
As for UCGUAGCAAUAUUACGUACA, the “self-splicing fitness (ln)” value is, setting by setting: (30 °C) -1.71 ± 0.24; (37 °C) -1.73 ± 0.26.
Taken in the same sequence, the figures for AGAUAGCAAUAUUACGUGGA were -3.21 ± 0.25 and -2.37 ± 0.28.
In the same order, the values of GAACAGCAAUAUUACGACAU are -0.575 ± 0.011 and -0.153 ± 0.032.
Taken in the same sequence, the figures for UCAUAGCAAUAUUACGACGU were -1.76 ± 0.12 and -1.37 ± 0.15.
Turning to GCCUAGCAAUAUUACGCGUG, the “self-splicing fitness (ln)” value is -4.17 ± 0.42 (30 °C) and -0.758 ± 0.17 (37 °C).
Regarding UUCUAGCAAUAUUACGGUCA, the “self-splicing fitness (ln)” value runs as follows: (30 °C) -0.883 ± 0.15; (37 °C) -0.729 ± 0.11.
In the same order, the values of AGCAAGCAAUAUUACGGUAU are -2.35 ± 0.075 and -0.546 ± 0.068.
Taken in the same sequence, the figures for CAUAAGCAAUAUUACGUACA were -3.09 ± 0.36 and -2.37 ± 0.19.
As for CGUAAGCAAUAUUACGGGAA, the “self-splicing fitness (ln)” value is -3.04 ± 0.41 (30 °C) and -1.9 ± 0.44 (37 °C).
Taken in the same sequence, the figures for GGAGAGCAAUAUUACGGCUG were -2.1 ± 0.21 and -0.692 ± 0.21.
As for CAUCAGCAAUAUUACGCGCU, the “self-splicing fitness (ln)” value (37 °C) was -1.87 ± 0.29.
Regarding UCUAAGCAAUAUUACGACUG, the “self-splicing fitness (ln)” value was -0.955 ± 0.17 (30 °C) and -0.205 ± 0.23 (37 °C).
Taken in the same sequence, the figures for UUAUAGCAAUAUUACGGACC were -3.38 ± 0.47 and -1.41 ± 0.21.
Consider UUUUAGCAAUAUUACGGUAG, for which the “self-splicing fitness (ln)” value is -1.6 ± 0.18 (30 °C) and -1.74 ± 0.16 (37 °C).
Turning to AUAGAGCAAUAUUACGCGAG, the “self-splicing fitness (ln)” value is -1.54 ± 0.11 (30 °C) and -1.26 ± 0.14 (37 °C).
In the same order, the values of AAUGAGCAAUAUUACGUAGA are -2.46 ± 0.24 and -2.56 ± 0.27.
Consider CAGGAGCAAUAUUACGGCAG, for which the “self-splicing fitness (ln)” value was -1.41 ± 0.083 (30 °C) and -1.27 ± 0.09 (37 °C).
Taken in the same sequence, the figures for GCACAGCAAUAUUACGAUUU were -0.869 ± 0.042 and -0.0519 ± 0.058.
In the same order, the values of CUCCAGCAAUAUUACGGAAG are -3.34 ± 0.16 and -3.14 ± 0.24.
Taken in the same sequence, the figures for GUAAAGCAAUAUUACGCUCA were -0.138 ± 0.095 and 0.776 ± 0.14.
In the case of UCGGAGCAAUAUUACGGGUU, under “30 °C”, the “self-splicing fitness (ln)” value is -2.86 ± 0.41.
Regarding CGUCAGCAAUAUUACGAAUA, the “self-splicing fitness (ln)” value (30 °C) is -2.58 ± 0.16 and the “self-splicing fitness (ln)” value (37 °C) was -1.98 ± 0.16.
Taken in the same sequence, the figures for GAUCAGCAAUAUUACGGCCG were -0.635 ± 0.13 and -0.245 ± 0.14.
In the same order, the values of UGAUAGCAAUAUUACGCGGA are -2.4 ± 0.48 and -0.465 ± 0.29.
Taken in the same sequence, the figures for ACAUAGCAAUAUUACGCACG were -2.07 ± 0.2 and -1.01 ± 0.15.
For UUGAAGCAAUAUUACGGCGG, the “self-splicing fitness (ln)” value (30 °C) was 0.15 ± 0.11 and the “self-splicing fitness (ln)” value (37 °C) worked out at 0.55 ± 0.13.
Consider CGCUAGCAAUAUUACGAACA, for which the “self-splicing fitness (ln)” value was -0.88 ± 0.11 (30 °C) and -0.227 ± 0.14 (37 °C).
In the same order, the values of AGCGAGCAAUAUUACGUACU are -0.777 ± 0.088 and -0.674 ± 0.092.
On to UUUAAGCAAUAUUACGUGCU, for which the “self-splicing fitness (ln)” value is -3.09 ± 0.18 (30 °C) and -1.41 ± 0.15 (37 °C).
As for UCAUAGCAAUAUUACGCACA, the “self-splicing fitness (ln)” value (30 °C) is -1.21 ± 0.13 and the “self-splicing fitness (ln)” value (37 °C) was -0.159 ± 0.11.
In the case of CGAGAGCAAUAUUACGUCCU, for the setting “30 °C”, the “self-splicing fitness (ln)” value was -2.98 ± 0.39.
For the sequence AGGGAGCAAUAUUACGCGGU, the “self-splicing fitness (ln)” value runs as follows: (30 °C) -3.98 ± 0.21; (37 °C) -3.05 ± 0.24.
As to CCACAGCAAUAUUACGCUUA, the “self-splicing fitness (ln)” value was -3.43 ± 0.16 (30 °C) and -2.98 ± 0.18 (37 °C).
Consider GAUGAGCAAUAUUACGAUCG, for which the “self-splicing fitness (ln)” value is -1.9 ± 0.35 (30 °C) and -2.32 ± 0.24 (37 °C).
Consider AGAGAGCAAUAUUACGAUAA, for which, for the setting “37 °C”, the “self-splicing fitness (ln)” value was -2.71 ± 0.28.
Turning to GCGGAGCAAUAUUACGUUGU, the “self-splicing fitness (ln)” value is, setting by setting: (30 °C) -2.96 ± 0.13; (37 °C) -1.79 ± 0.14.
As for CCGCAGCAAUAUUACGUAGA, the “self-splicing fitness (ln)” value reads like this: (30 °C) -3.07 ± 0.17; (37 °C) -1.37 ± 0.12.
Taken in the same sequence, the figures for AGCUAGCAAUAUUACGGAAU were -1.13 ± 0.16 and -2.07 ± 0.27.
On to CUAUAGCAAUAUUACGUGAU, for which the “self-splicing fitness (ln)” value reads like this: (30 °C) -1.33 ± 0.066; (37 °C) -0.295 ± 0.1.
On to GGUAAGCAAUAUUACGGGGA, for which the “self-splicing fitness (ln)” value (37 °C) is -2.42 ± 0.33.
In the case of CAACAGCAAUAUUACGCGCG, the “self-splicing fitness (ln)” value by setting is: (30 °C) -0.385 ± 0.059; (37 °C) -0.492 ± 0.082.
Taken in the same sequence, the figures for UUCUAGCAAUAUUACGUGGG were -3.08 ± 0.16 and -2.39 ± 0.15.
Turning to CUCGAGCAAUAUUACGUUCG, the “self-splicing fitness (ln)” value (37 °C) was -3.15 ± 0.47.
With UACGAGCAAUAUUACGGACC, the “self-splicing fitness (ln)” value runs as follows: (30 °C) -3.28 ± 0.24; (37 °C) -3.19 ± 0.43.
For the sequence AGAAAGCAAUAUUACGAAAA, the “self-splicing fitness (ln)” value was -1.74 ± 0.13 (30 °C) and -0.577 ± 0.15 (37 °C).
Taken in the same sequence, the figures for GUUCAGCAAUAUUACGUCUA were -1.14 ± 0.14 and -0.132 ± 0.13.
In the case of GGUGAGCAAUAUUACGUCGA, the “self-splicing fitness (ln)” value reads like this: (30 °C) -3.18 ± 0.31; (37 °C) -2.42 ± 0.28.
Taken in the same sequence, the figures for AGGAAGCAAUAUUACGUAUU were -3.54 ± 0.24 and -0.582 ± 0.15.
In the case of GUGGAGCAAUAUUACGCAGG, the “self-splicing fitness (ln)” value (37 °C) was -1.19 ± 0.28.
For the sequence CCUCAGCAAUAUUACGAUAC, the “self-splicing fitness (ln)” value is -3.21 ± 0.26 (30 °C) and -3.08 ± 0.47 (37 °C).
Take AGUCAGCAAUAUUACGUUAC: the “self-splicing fitness (ln)” value is -2.88 ± 0.16 (30 °C) and -2.36 ± 0.21 (37 °C).
Taken in the same sequence, the figures for CUACAGCAAUAUUACGAUUC were -4.31 ± 0.43 and -1.6 ± 0.24.
For GGUAAGCAAUAUUACGGUUU, the “self-splicing fitness (ln)” value (30 °C) is -0.707 ± 0.056 and the “self-splicing fitness (ln)” value (37 °C) was -0.0713 ± 0.083.
In the same order, the values of GGAAAGCAAUAUUACGAUUU are -0.238 ± 0.081 and 0.189 ± 0.1.
With GCAGAGCAAUAUUACGCCUC, the “self-splicing fitness (ln)” value by setting is: (30 °C) -2.46 ± 0.21; (37 °C) -2.38 ± 0.34.
As for UAAGAGCAAUAUUACGCGAA, the “self-splicing fitness (ln)” value reads like this: (30 °C) -2.74 ± 0.22; (37 °C) -1.6 ± 0.16.
As for UAGAAGCAAUAUUACGAACC, the “self-splicing fitness (ln)” value is -2.02 ± 0.24 (30 °C) and -0.44 ± 0.3 (37 °C).
As for UUCAAGCAAUAUUACGGUCU, the “self-splicing fitness (ln)” value was -2.89 ± 0.16 (30 °C) and -1.97 ± 0.16 (37 °C).
In the same order, the values of GACAAGCAAUAUUACGCGCC are -2.58 ± 0.18 and -1.08 ± 0.21.
For the sequence CGGAAGCAAUAUUACGCUUA, the “self-splicing fitness (ln)” value (37 °C) is -2.15 ± 0.32.
For UACCAGCAAUAUUACGAACC, the “self-splicing fitness (ln)” value by setting is: (30 °C) -3.08 ± 0.2; (37 °C) -1.05 ± 0.23.
Consider AUUCAGCAAUAUUACGACGC, for which the “self-splicing fitness (ln)” value is -0.246 ± 0.11 (30 °C) and 0.397 ± 0.14 (37 °C).
On to ACAUAGCAAUAUUACGGGAU, for which the “self-splicing fitness (ln)” value runs as follows: (30 °C) -1.88 ± 0.1; (37 °C) -0.904 ± 0.12.
In the same order, the values of CCCAAGCAAUAUUACGAGAG are -2.99 ± 0.079 and -1.93 ± 0.079.
For GCGGAGCAAUAUUACGGAUU, the “self-splicing fitness (ln)” value was -3.69 ± 0.27 (30 °C) and -1.28 ± 0.2 (37 °C).
Turning to GUAUAGCAAUAUUACGCAGA, the “self-splicing fitness (ln)” value (30 °C) is -2.74 ± 0.32 and the “self-splicing fitness (ln)” value (37 °C) was -2.71 ± 0.34.
Regarding GAGCAGCAAUAUUACGAGUU, the “self-splicing fitness (ln)” value is -2.48 ± 0.13 (30 °C) and -1.1 ± 0.13 (37 °C).
In the same order, the values of AUCGAGCAAUAUUACGUUCG are -3.25 ± 0.2 and -2.52 ± 0.24.
UUAUAGCAAUAUUACGCCAA: for the setting “37 °C”, the “self-splicing fitness (ln)” value is -0.44 ± 0.25.
Same read-out and setting: the figure for AGAGAGCAAUAUUACGUCAC is -0.851 ± 0.42.
As for AGAUAGCAAUAUUACGACAU, the “self-splicing fitness (ln)” value is -0.0342 ± 0.013 (30 °C) and 0.0833 ± 0.033 (37 °C).
AAACAGCAAUAUUACGUCCA: the “self-splicing fitness (ln)” value runs as follows: (30 °C) -1.19 ± 0.065; (37 °C) -0.777 ± 0.073.
As to CUCCAGCAAUAUUACGCCAA, the “self-splicing fitness (ln)” value (37 °C) was -2.07 ± 0.27.
With CUCUAGCAAUAUUACGUGGU, the “self-splicing fitness (ln)” value runs as follows: (30 °C) -5.48 ± 0.41; (37 °C) -3.5 ± 0.22.
